How the values were obtained:
[1] = substrate: O=c1ccn([C@H]2C[C@H](O)[C@@H](COP(=O)(O)OP(=O)(O)OP(=O)(O)O)O2)c(=O)[nH]1; experiment: stopped-flow absorbance, proton release with cresol red; assay type: biochemical, Dictyostelium discoideum; settings: enzyme 0.15 µM
Description: stopped-flow absorbance, proton release with cresol red on core D. discoideum dUTPase

[2] = substrate: O=c1ccn([C@H]2C[C@H](O)[C@@H](COP(=O)(O)OP(=O)(O)OP(=O)(O)O)O2)c(=O)[nH]1; experiment: as above; assay type: biochemical, Dictyostelium discoideum; settings: enzyme 0.15 µM; remark: listed apart in the source
Description: stopped-flow absorbance, proton release with cresol red on full-length D. discoideum dUTPase

B1: core D. discoideum dUTPase (Dictyostelium discoideum) (protein)
chain: FKVKKLSDKAIIPQRGSKGAAGYDLSSAHELVVPAHGKALAMTDLQIAIPDGTYGRIAPRSGLAWKNFIDCGAGVIDSDYRGNVGVVLFNHSDVDFKVAVGDRVAQLIFERIVTPEPLEVDEIDETQRGAGGFGSTGVKVQN
notes: core lacking residues 1-37, N-terminal GSHM from cloning, E. coli, His-tag removed, homotrimer
- Km [1]: 0.5 ± 0.1 µM
- Vmax [1]: 84 µM/min
- kcat [1]: 9.3 s⁻¹
- kcat/Km [1]: 1.86e+07 M⁻¹ s⁻¹

B2: full-length D. discoideum dUTPase (Dictyostelium discoideum) (protein)
chain: MPIEQKYFSLFSNLFKRLTTNNNNNNYLKMAPPNFETFKVKKLSDKAIIPQRGSKGAAGYDLSSAHELVVPAHGKALAMTDLQIAIPDGTYGRIAPRSGLAWKNFIDCGAGVIDSDYRGNVGVVLFNHSDVDFKVAVGDRVAQLIFERIVTPEPLEVDEIDETQRGAGGFGSTGVKVQN
- Km [2]: 1.0 ± 0.2 µM
- Vmax [2]: 30 µM/min
